Laboratory results: IntAct's records for PubMed 10064581

B1: Circadian clock oscillator protein KaiA (Synechococcus elongatus (strain PCC 7942)), Q79PF6 (parent)
chain: MLSQIAICIWVESTAILQDCQRALSADRYQLQVCESGEMLLEYAQTHRDQIDCLILVAANPSFRAVVQQLCFEGVVVPAIVVGDRDSEDPDEPAKEQLYHSAELHLGIHQLEQLPYQVDAALAEFLRLAPVETMADHIMLMGANHDPELSSQQRDLAQRLQERLGYLGVYYKRDPDRFLRNLPAYESQKLHQAMQTSYREIVLSYFSPNSNLNQSIDNFVNMAFFADVPVTKVVEIHMELMDEFAKKLRVEGRSEDILLDYRLTLIDVIAHLCEMYRRSIPRET
partner: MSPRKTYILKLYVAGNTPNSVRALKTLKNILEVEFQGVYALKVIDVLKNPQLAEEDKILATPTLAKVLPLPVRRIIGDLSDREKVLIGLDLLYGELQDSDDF

Variants of: B1
Conditions: with kaib_syne7 kaiB

| Variant | effect of a mutation on the interaction |
| --- | --- |
| E103K | increasing interaction |
